# Measured values: patent EP4506361A1 (Biotheus Inc., dated 2025)
# Tests used:
# [1] = molecular target: T1, human c-Met on HEK293T cells overexpressing human c-Met (HEK293-Hu c-Met) (human, UniProt P08581 25-1390); experiment: flow cytometry on HEK293-Hu c-Met cells, first EC50 column
# T1 construct: whole, on cells; also called human c-Met overexpression cells
# [2] = molecular target: T2, rhesus c-Met on HEK293T cells overexpressing rhesus c-Met (HEK293-Rhe c-Met) (rhesus monkey, UniProt F7H1K4 25-1381); experiment: flow cytometry on HEK293-Rhe c-Met cells, first EC50 column
# T2 construct: also called rhesus monkey c-Met
# T2 sequence (F7H1K4 entry or part of it limits assumed, form in doubt): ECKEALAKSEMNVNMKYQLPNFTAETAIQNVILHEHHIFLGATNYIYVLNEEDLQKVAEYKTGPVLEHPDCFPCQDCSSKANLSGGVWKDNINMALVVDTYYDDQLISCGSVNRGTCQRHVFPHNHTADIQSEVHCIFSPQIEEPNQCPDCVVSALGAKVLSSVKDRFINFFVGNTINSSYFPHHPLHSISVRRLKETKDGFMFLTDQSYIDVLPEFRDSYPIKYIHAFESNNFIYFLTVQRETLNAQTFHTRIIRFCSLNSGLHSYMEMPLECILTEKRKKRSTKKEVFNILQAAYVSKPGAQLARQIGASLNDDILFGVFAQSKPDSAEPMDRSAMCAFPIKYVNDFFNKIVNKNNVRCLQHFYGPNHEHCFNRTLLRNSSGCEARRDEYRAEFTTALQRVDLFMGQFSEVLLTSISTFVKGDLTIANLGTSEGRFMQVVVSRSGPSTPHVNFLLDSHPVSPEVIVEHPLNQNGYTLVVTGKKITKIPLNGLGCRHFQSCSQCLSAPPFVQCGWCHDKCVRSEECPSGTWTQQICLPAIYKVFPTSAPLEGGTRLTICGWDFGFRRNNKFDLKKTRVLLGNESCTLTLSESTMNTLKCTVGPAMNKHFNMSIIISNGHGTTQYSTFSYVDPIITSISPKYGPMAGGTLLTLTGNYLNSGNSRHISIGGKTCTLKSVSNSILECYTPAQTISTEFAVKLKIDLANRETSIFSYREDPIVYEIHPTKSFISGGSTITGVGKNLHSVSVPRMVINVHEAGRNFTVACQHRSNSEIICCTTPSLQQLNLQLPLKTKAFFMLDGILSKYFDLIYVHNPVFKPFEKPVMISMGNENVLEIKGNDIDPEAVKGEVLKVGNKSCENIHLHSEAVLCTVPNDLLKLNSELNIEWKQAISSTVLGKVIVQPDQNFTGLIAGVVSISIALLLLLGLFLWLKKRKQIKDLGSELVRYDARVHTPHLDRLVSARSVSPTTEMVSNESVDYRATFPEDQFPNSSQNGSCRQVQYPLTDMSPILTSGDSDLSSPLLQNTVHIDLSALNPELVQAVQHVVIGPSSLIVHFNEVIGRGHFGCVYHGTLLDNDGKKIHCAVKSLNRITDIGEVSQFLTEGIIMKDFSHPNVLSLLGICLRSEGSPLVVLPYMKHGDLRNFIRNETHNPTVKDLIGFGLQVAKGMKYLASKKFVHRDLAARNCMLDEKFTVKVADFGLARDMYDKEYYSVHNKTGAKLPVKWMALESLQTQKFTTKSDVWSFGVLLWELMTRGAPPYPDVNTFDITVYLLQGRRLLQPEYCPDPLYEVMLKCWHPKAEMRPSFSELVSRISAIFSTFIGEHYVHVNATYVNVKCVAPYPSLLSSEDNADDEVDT
# [3] = molecular target: T3, human c-Met protein (purchased from AcroBiosystems) (human, UniProt P08581 25-932); experiment: BLI (ForteBio), antibody on AHQ sensor, 100 nM human c-Met antigen, 1:1 model
# T3 construct: Soluble antigen of the ForteBio assay; also called human c-Met antigen
# T3 sequence (P08581 25-932 limits assumed): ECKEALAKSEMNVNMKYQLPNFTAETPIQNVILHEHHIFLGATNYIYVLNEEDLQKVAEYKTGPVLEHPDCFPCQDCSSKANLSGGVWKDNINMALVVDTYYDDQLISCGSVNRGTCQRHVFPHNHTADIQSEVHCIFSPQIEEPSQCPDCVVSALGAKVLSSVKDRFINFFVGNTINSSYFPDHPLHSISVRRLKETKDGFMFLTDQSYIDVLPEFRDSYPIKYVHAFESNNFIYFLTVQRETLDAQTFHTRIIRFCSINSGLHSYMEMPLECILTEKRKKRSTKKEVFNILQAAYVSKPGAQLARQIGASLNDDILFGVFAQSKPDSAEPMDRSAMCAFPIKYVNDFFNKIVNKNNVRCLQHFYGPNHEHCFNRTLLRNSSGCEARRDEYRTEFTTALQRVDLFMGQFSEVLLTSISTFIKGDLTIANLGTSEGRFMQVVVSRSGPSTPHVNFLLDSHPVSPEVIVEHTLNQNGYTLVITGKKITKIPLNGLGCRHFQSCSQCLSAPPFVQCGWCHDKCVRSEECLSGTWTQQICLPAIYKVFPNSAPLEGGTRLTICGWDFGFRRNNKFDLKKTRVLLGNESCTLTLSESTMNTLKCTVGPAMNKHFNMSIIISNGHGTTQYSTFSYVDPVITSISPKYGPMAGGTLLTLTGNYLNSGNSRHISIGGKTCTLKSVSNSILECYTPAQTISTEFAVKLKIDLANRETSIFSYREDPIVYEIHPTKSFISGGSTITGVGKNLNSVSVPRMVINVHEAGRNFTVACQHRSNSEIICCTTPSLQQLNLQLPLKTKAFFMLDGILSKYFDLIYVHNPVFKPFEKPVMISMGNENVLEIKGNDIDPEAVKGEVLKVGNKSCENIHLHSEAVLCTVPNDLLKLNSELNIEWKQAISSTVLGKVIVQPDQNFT
# [4] = molecular target: cynomolgus monkey c-Met protein (purchased from AcroBiosystems) (cynomolgus monkey, UniProt A0A2K5UM36 25-932); experiment: BLI (ForteBio), antibody on AHQ sensor, cynomolgus monkey c-Met protein in solution
# Chain of cynomolgus monkey c-Met protein (purchased from AcroBiosystems) (A0A2K5UM36 entry or part of it limits assumed, form in doubt): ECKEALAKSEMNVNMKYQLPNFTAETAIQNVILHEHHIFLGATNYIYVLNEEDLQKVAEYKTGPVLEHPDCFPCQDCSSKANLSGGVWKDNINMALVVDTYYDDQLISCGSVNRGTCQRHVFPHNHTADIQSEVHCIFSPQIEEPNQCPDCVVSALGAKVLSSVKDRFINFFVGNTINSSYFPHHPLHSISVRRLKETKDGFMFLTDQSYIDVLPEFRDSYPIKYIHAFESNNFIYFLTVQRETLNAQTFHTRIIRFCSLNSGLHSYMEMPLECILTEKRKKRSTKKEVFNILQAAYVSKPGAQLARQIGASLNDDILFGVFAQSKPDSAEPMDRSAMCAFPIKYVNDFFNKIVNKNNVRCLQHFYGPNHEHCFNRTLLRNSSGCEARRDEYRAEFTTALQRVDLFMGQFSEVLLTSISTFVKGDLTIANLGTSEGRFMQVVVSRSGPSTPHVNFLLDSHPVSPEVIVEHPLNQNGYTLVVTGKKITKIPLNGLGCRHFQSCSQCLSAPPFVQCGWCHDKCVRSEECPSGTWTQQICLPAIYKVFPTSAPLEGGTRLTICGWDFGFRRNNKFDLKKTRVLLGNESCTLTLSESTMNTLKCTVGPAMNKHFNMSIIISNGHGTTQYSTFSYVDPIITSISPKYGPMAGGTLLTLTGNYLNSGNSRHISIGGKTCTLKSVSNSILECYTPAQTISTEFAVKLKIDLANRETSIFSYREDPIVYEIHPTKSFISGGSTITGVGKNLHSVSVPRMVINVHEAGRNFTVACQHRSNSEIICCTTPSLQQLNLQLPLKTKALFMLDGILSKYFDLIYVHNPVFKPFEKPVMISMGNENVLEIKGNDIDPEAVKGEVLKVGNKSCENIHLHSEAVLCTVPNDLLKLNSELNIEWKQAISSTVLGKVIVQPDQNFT
# [5] = molecular target: T1, human c-Met on HEK293T cells …; experiment: flow cytometry on HEK293-Hu c-Met cells
# [6] = molecular target: T2, rhesus c-Met on HEK293T cells …; experiment: flow cytometry on HEK293-Rhe c-Met cells
# T1 sequence (P08581 25-1390): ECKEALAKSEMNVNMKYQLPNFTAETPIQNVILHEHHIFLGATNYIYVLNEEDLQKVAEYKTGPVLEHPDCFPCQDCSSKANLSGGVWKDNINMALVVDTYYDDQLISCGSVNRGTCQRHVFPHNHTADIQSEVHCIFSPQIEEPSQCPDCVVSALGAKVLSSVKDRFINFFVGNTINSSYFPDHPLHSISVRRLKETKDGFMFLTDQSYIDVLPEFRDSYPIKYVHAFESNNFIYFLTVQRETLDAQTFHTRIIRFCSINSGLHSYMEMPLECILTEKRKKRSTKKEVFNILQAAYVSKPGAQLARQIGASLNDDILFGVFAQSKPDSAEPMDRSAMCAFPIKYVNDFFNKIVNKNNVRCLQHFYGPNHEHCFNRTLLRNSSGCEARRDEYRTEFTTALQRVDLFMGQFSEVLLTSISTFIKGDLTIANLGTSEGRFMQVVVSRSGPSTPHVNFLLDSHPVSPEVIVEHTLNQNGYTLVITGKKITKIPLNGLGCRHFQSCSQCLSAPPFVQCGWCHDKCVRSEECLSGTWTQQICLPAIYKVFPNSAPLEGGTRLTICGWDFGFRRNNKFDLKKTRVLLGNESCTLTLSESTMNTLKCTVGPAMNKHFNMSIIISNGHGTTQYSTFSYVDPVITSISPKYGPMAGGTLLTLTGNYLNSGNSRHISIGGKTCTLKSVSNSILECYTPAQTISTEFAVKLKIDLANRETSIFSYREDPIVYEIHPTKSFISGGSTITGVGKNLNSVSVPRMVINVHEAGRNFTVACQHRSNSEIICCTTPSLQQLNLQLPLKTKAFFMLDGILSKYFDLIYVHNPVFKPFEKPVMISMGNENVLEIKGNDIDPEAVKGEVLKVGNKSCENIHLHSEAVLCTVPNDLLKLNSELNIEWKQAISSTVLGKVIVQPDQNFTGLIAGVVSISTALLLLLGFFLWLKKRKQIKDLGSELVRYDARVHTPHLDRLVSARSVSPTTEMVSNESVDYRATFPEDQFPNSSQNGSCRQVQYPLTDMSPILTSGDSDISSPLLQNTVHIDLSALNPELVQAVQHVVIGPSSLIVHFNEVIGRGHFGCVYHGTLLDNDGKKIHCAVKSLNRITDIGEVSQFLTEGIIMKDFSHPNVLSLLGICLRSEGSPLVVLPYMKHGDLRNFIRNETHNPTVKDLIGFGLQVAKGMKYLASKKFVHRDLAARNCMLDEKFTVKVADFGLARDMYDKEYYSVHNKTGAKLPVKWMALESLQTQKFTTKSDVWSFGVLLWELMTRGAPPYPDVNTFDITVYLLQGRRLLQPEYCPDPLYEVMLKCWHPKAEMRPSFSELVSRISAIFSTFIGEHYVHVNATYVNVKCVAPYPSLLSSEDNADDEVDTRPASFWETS
EC50 [1] [nM],EC50 [2] [nM],Kd [3] [nM],koff [3] [s⁻¹],kon [3] [M⁻¹ s⁻¹],Kd [4] [nM],koff [4] [s⁻¹],kon [4] [M⁻¹ s⁻¹],EC50 [5] [nM],EC50 [6] [nM],Binder
0.452,0.306,0.0293,6.71e-06,229000,1.16,0.000426,369000,–,–,"anti-c-Met single-arm antibody 136 (antibody, human IgG1, kappa, L234A L235A) heavy: not shown light: DIVMTQSPSSVSASVGDRVTITCRASQGISSWLAWYQQKPGKAPKLLIYAVSSLQSGVPSRFSGSGSGTDFTLTISSLQPEDFATYFCQQANSFPLTFGGGTKVEIKRTVAAPSVFIFPPSDEQLKSGTASVVCLLNNFYPREAKVQWKVDNALQSGNSQESVTEQDSKDSTYSLSSTLTLSKADYEKHKVYACEVTHQGLSSPVTKSFNRGEC not shown"
–,–,1.68,0.000369,220000,2.92,0.000947,324000,0.732,0.592,"anti-c-Met single-arm antibody 187 (antibody, human IgG1, kappa, L234A L235A) heavy: not shown light: DIVMTQSPSSVSASVGDRVTITCRASQGISSWLAWYQQKPGKAPNLLIYAASNLPSGVPSRFSGSGSGTVFTLTISSLQPEDFATYYCQQSNSFPLTFGGGTKVEIKRTVAAPSVFIFPPSDEQLKSGTASVVCLLNNFYPREAKVQWKVDNALQSGNSQESVTEQDSKDSTYSLSSTLTLSKADYEKHKVYACEVTHQGLSSPVTKSFNRGEC not shown"
–,–,2.01,0.00037,184000,63.8,0.00192,30100,1.73,1.48,"anti-c-Met single-arm antibody 221 (antibody, human IgG1, kappa, L234A L235A) heavy: not shown light: EIVLTQSPGTLSLSPGERATLSCRASQSVSSSYLAWYQQKPGQAPRLLIYGPSSRATGIPDRFSGSGSGTDFTLTISSLQPADFASYYCQQSYITPYTFGQGTKVEIKRTVAAPSVFIFPPSDEQLKSGTASVVCLLNNFYPREAKVQWKVDNALQSGNSQESVTEQDSKDSTYSLSSTLTLSKADYEKHKVYACEVTHQGLSSPVTKSFNRGEC not shown"
–,–,9.76,0.00163,167000,16.2,0.00109,67300,0.765,1.06,"anti-c-Met single-arm antibody 223 (antibody, human IgG1, kappa, L234A L235A) heavy: not shown light: DIQLTQSPSSLSASVGDRVTITCRASQSIITYLNWYQQKPGKAPKLLIYAASSLQSGVPSRFSGSGSGTDFTLNISSLQPEDFATYYCQQANSLPYTFGQGTKVEIKRTVAAPSVFIFPPSDEQLKSGTASVVCLLNNFYPREAKVQWKVDNALQSGNSQESVTEQDSKDSTYSLSSTLTLSKADYEKHKVYACEVTHQGLSSPVTKSFNRGEC not shown"

# More lines, now with the values behind:
Binder,EC50 [1] [nM],EC50 [2] [nM],Kd [3] [nM],koff [3] [s⁻¹],kon [3] [M⁻¹ s⁻¹],Kd [4] [nM],koff [4] [s⁻¹],kon [4] [M⁻¹ s⁻¹],EC50 [5] [nM],EC50 [6] [nM]
"anti-c-Met single-arm antibody 22 (antibody, human IgG1, kappa, L234A L235A) heavy: not shown light: DIVMTQSPSSVSASVGDRVTITCRASQGISSWLAWYQQKPGKAPKLLIYAASSLQSGVPSKFSGSGSGTEFTLTISSLQPEDFATYFCQQAYGFPLTFGGGTKVEIKRTVAAPSVFIFPPSDEQLKSGTASVVCLLNNFYPREAKVQWKVDNALQSGNSQESVTEQDSKDSTYSLSSTLTLSKADYEKHKVYACEVTHQGLSSPVTKSFNRGEC not shown",0.947,0.726,4.29,0.000548,128000,19,0.00259,136000,–,–
"anti-c-Met single-arm antibody 74 (antibody, human IgG1, kappa, L234A L235A) heavy: not shown light: DIVMTQSPSSVSASVGDRVTITCRASQGINSWLAWYQQKPGKAPNLLIYAASSLQSGVPSRFSGRGSGTDFSLTISSLHPEDFATYYCQQAKGFPLTFGGGTKVEIKRTVAAPSVFIFPPSDEQLKSGTASVVCLLNNFYPREAKVQWKVDNALQSGNSQESVTEQDSKDSTYSLSSTLTLSKADYEKHKVYACEVTHQGLSSPVTKSFNRGEC not shown",1.9,1.46,6.01,0.00108,179000,9.7,0.0026,269000,–,–
"Onartuzumab (antibody, human IgG1, kappa, L234A L235A, Control antibody, made from three plasmids in Expi-CHO cells; also called control antibody onartuzumab; antibody onartuzumab) heavy: not shown light: DIQMTQSPSSLSASVGDRVTITCKSSQSLLYTSSQKNYLAWYQQKPGKAPKLLIYWASTRESGVPSRFSGSGSGTDFTLTISSLQPEDFATYYCQQYYAYPWTFGQGTKVEIKRTVAAPSVFIFPPSDEQLKSGTASVVCLLNNFYPREAKVQWKVDNALQSGNSQESVTEQDSKDSTYSLSSTLTLSKADYEKHKVYACEVTHQGLSSPVTKSFNRGEC not shown",1.03,0.97,–,–,–,–,–,–,0.54,1.24
"anti-c-Met single-arm antibody 23 (antibody, human IgG1, kappa, L234A L235A) heavy: not shown light: DIVMTQSPSSLSASVGDRVTITCRASQSFSDYLNWYRQKPGKAPKLLLFAASSLQSGVPSRFSGSGSGTDFTLTISSLQPEDFATYYCQQSYSPPYTFGQGTKLEIKRTVAAPSVFIFPPSDEQLKSGTASVVCLLNNFYPREAKVQWKVDNALQSGNSQESVTEQDSKDSTYSLSSTLTLSKADYEKHKVYACEVTHQGLSSPVTKSFNRGEC not shown",0.821,0.746,0.596,9.5e-05,160000,26.5,0.00151,56900,–,–
"Amivantamab single-arm antibody (antibody, human IgG1, kappa, L234A L235A, also called control antibody Amivantamab) heavy: not shown light: DIQMTQSPSSVSASVGDRVTITCRASQGISNWLAWFQHKPGKAPKLLIYAASSLLSGVPSRFSGSGSGTDFTLTISSLQPEDFATYYCQQANSFPITFGQGTRLEIKRTVAAPSVFIFPPSDEQLKSGTASVVCLLNNFYPREAKVQWKVDNALQSGNSQESVTEQDSKDSTYSLSSTLTLSKADYEKHKVYACEVTHQGLSSPVTKSFNRGEC not shown",0.323,0.241,–,–,–,–,–,–,0.396,0.2
"LY2875358 single-arm antibody (antibody, human IgG1, kappa, L234A L235A, also called control antibody LY2875358) heavy: not shown light: DIQMTQSPSSLSASVGDRVTITCSVSSSVSSIYLHWYQQKPGKAPKLLIYSTSNLASGVPSRFSGSGSGTDFTLTISSLQPEDFATYYCQVYSGYPLTFGGGTKVEIKRTVAAPSVFIFPPSDEQLKSGTASVVCLLNNFYPREAKVQWKVDNALQSGNSQESVTEQDSKDSTYSLSSTLTLSKADYEKHKVYACEVTHQGLSSPVTKSFNRGEC not shown",1.25,0.868,–,–,–,–,–,–,1.39,0.749
